The record followed here is publication PMC8809517, “Cofactor-independent RNA editing by a synthetic S-type PPR protein”.

What all share (experiment): high-throughput RNA pulldown from lysate on Ni-NTA beads; HRP: 50 mM Tris pH 8, 150 mM NaCl, 1 mM beta-mercaptoethanol, 50 ug/ml BSA, 3 ug/ml yeast RNA, 0.5% heparin; ITC and FP: Tris pH 8, 200 mM KCl, 5% glycerol; MST: 50 mM Tris pH 8, 200 mM NaCl, 1 mM DTT, BSA, heparin, 0.05% Tween 20
Common to all, as to details: tags: N-terminal His-eGFP

Series [1] addresses T1, GFP-9S library array, motif 4 ND N98Q;D124R (synthetic construct, N98Q;D124R).
T1 chain: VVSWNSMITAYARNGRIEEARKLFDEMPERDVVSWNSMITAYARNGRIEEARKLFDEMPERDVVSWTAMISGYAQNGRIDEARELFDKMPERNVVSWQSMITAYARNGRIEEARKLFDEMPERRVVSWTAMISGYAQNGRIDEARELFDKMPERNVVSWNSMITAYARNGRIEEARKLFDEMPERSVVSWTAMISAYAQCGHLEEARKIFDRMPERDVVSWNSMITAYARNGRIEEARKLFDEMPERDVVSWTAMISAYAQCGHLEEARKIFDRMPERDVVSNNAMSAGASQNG

In series [2] the target is T2, GFP-9S library array, motif 4 ND D124S (synthetic construct, D124S).
T2 chain: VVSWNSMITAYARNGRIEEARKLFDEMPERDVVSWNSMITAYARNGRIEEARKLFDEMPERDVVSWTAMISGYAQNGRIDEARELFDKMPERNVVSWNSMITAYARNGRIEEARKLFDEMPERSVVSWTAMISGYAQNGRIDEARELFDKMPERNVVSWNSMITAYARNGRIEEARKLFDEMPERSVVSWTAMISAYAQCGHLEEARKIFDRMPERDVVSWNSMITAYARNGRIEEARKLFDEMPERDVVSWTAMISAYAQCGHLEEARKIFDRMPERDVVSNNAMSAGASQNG

Series [3] addresses T3, GFP-9S library array, motif 4 ND N98I;D124L (synthetic construct, N98I;D124L).
T3 chain: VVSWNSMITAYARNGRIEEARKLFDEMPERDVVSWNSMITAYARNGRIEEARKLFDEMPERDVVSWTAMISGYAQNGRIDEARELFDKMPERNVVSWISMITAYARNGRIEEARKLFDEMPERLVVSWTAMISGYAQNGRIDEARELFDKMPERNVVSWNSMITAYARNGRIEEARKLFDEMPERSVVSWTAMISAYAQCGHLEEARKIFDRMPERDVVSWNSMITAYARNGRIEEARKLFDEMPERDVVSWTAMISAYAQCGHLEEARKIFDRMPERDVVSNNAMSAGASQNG

In series [4] the target is T4, GFP-9S library array, motif 4 ND N98F;D124K (synthetic construct, N98F;D124K).
T4 chain: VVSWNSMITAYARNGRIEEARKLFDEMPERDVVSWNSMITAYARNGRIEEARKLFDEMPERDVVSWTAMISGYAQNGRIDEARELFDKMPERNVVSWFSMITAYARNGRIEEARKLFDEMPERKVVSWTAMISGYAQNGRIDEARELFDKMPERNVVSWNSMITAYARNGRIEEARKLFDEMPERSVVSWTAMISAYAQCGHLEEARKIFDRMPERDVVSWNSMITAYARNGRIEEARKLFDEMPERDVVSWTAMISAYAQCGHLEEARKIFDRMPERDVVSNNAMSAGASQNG

For series [5], the target named is T5, GFP-9S library array, motif 4 ND N98E;D124Y (synthetic construct, N98E;D124Y).
T5 chain: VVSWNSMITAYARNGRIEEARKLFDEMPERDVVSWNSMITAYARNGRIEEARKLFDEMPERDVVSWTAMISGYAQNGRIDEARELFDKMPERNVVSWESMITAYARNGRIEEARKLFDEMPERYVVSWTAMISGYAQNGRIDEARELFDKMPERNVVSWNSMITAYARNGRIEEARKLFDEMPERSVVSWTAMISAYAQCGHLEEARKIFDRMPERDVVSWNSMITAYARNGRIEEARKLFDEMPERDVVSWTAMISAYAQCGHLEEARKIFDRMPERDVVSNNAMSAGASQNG

The term Kd denotes a measure of binding affinity in units of concentration. Read a low Kd as a tighter complex. Take AUUAGACGUGA (ssRNA) [Cy5-rpoA-G]: the Kd in series [1] (label: 5' Cy5) turned out to be 77.7 nM; in series [2] (label: 5' Cy5), 522 nM; in series [3] (label: 5' Cy5), 128 nM; in series [4] (label: 5' Cy5), 63.6 nM; in series [5] (label: 5' Cy5), 187 nM.

With AUUAUACGUGA (ssRNA) [IR-rpoA-U], the dissociation constant (Kd) in series [1] (label: 5' IRDye 800CW) came to 138 nM; in series [2] (label: 5' IRDye 800CW), 5.07 nM; in series [3] (label: 5' IRDye 800CW), 202 nM; in series [4] (label: 5' IRDye 800CW), 667 nM; in series [5] (label: 5' IRDye 800CW) it was 480 nM.

Regarding AUUAAACGUGA (ssRNA) [IR-rpoA-A], the dissociation constant Kd in series [1] (label: 5' IRDye 800CW) worked out at 201 nM; in series [2] (label: 5' IRDye 800CW), 162 nM; in series [3] (label: 5' IRDye 800CW) it was 343 nM; in series [4] (label: 5' IRDye 800CW), 121 nM; in series [5] (label: 5' IRDye 800CW), 450 nM.

For the molecule AUUACACGUGA (ssRNA) [Cy5-rpoA], the Kd was determined as 95.2 nM in series [1] (label: 5' Cy5); 2.01 nM in series [2] (label: 5' Cy5); 106 nM in series [3] (label: 5' Cy5); 160 nM in series [4] (label: 5' Cy5); 231 nM in series [5] (label: 5' Cy5).
